Measurements taken from patent publication US7410949 (Hoffmann-La Roche, dated 2008).
*1 amine or outer side, *2 acyl side, *3 side chain or, on linkers, in order; H or OH if unused. Bridges are numbered along the chain shown (N, C = ends). [ ]: non-standard residue; d: D form. Pqa = N-piperazin-1-yl-4(3H)-quinazolinone-3-acetic acid, O=C(Cn1cnc2ccc(N3CCN([*:1])CC3)cc2c1=O)[*:2]; Phe(3,4,5-F3) = N[C@@H](Cc1cc(F)c(F)c(F)c1)C(=O)O; Phe(F5) = N[C@@H](Cc1c(F)c(F)c(F)c(F)c1F)C(=O)O; 4Pal = N[C@@H](Cc1ccncc1)C(=O)O; Tic = O=C(O)[C@@H]1Cc2ccccc2CN1; 4‑MeOApc = not defined here; Nle = CCCC[C@H](N)C(=O)O

B1: H-Ile-Lys-Pqa-Arg-His-Tyr-Leu-Ala-Leu-Val-Thr-Arg-Gln-Arg-Tyr-NH2 (peptide)
peptide: H-IK[Pqa]RHYLALVTRQRY-NH2
SMILES: CC[C@H](C)[C@H](N)C(=O)N[C@@H](CCCCN)C(=O)N1CCN(c2ccc3ncn(CC(=O)N[C@@H](CCCNC(=N)N)C(=O)N[C@@H](Cc4c[nH]cn4)C(=O)N[C@@H](Cc4ccc(O)cc4)C(=O)N[C@@H](CC(C)C)C(=O)N[C@@H](C)C(=O)N[C@@H](CC(C)C)C(=O)N[C@H](C(=O)N[C@H](C(=O)N[C@@H](CCCNC(=N)N)C(=O)N[C@@H](CCC(N)=O)C(=O)N[C@@H](CCCNC(=N)N)C(=O)N[C@@H](Cc4ccc(O)cc4)C(N)=O)[C@@H](C)O)C(C)C)c(=O)c3c2)CC1
B2: H-Ile-Lys-Pqa-Arg-His-Tyr-Leu-Asn-Leu-Ala-Thr-Arg-Gln-Arg-Tyr-NH2 (peptide)
peptide: H-IK[Pqa]RHYLNLATRQRY-NH2
SMILES: CC[C@H](C)[C@H](N)C(=O)N[C@@H](CCCCN)C(=O)N1CCN(c2ccc3ncn(CC(=O)N[C@@H](CCCNC(=N)N)C(=O)N[C@@H](Cc4c[nH]cn4)C(=O)N[C@@H](Cc4ccc(O)cc4)C(=O)N[C@@H](CC(C)C)C(=O)N[C@@H](CC(N)=O)C(=O)N[C@@H](CC(C)C)C(=O)N[C@@H](C)C(=O)N[C@H](C(=O)N[C@@H](CCCNC(=N)N)C(=O)N[C@@H](CCC(N)=O)C(=O)N[C@@H](CCCNC(=N)N)C(=O)N[C@@H](Cc4ccc(O)cc4)C(N)=O)[C@@H](C)O)c(=O)c3c2)CC1
B3: H-Ile-Lys-Pqa-Arg-His-Tyr-Leu-Asn-Leu-Val-Thr-Arg-Ala-Arg-Tyr-NH2 (peptide)
peptide: H-IK[Pqa]RHYLNLVTRARY-NH2
SMILES: CC[C@H](C)[C@H](N)C(=O)N[C@@H](CCCCN)C(=O)N1CCN(c2ccc3ncn(CC(=O)N[C@@H](CCCNC(=N)N)C(=O)N[C@@H](Cc4c[nH]cn4)C(=O)N[C@@H](Cc4ccc(O)cc4)C(=O)N[C@@H](CC(C)C)C(=O)N[C@@H](CC(N)=O)C(=O)N[C@@H](CC(C)C)C(=O)N[C@H](C(=O)N[C@H](C(=O)N[C@@H](CCCNC(=N)N)C(=O)N[C@@H](C)C(=O)N[C@@H](CCCNC(=N)N)C(=O)N[C@@H](Cc4ccc(O)cc4)C(N)=O)[C@@H](C)O)C(C)C)c(=O)c3c2)CC1
B4: Ac-Ile-Nle-Pqa-Arg-His-Tic-Leu-Asn-Leu-Val-Thr-Arg-Gln-Arg-Tyr-NH2 (peptide)
peptide: Ac-I[Nle][Pqa]RH[Tic]LNLVTRQRY-NH2
SMILES: CCCC[C@H](NC(=O)[C@@H](NC(C)=O)[C@@H](C)CC)C(=O)N1CCN(c2ccc3ncn(CC(=O)N[C@@H](CCCNC(=N)N)C(=O)N[C@@H](Cc4c[nH]cn4)C(=O)N4Cc5ccccc5C[C@H]4C(=O)N[C@@H](CC(C)C)C(=O)N[C@@H](CC(N)=O)C(=O)N[C@@H](CC(C)C)C(=O)N[C@H](C(=O)N[C@H](C(=O)N[C@@H](CCCNC(=N)N)C(=O)N[C@@H](CCC(N)=O)C(=O)N[C@@H](CCCNC(=N)N)C(=O)N[C@@H](Cc4ccc(O)cc4)C(N)=O)[C@@H](C)O)C(C)C)c(=O)c3c2)CC1
B5: Ac-Ile-Nle-Pqa-(2,3,4,5,6 Penta fluoro Phe)-His Tyr-Leu-Asn-Leu-Val-Thr-Arg-Gln-Arg-Tyr-NH2 (peptide)
peptide: Ac-I[Nle][Pqa][Phe(F5)]HYLNLVTRQRY-NH2
SMILES: CCCC[C@H](NC(=O)[C@@H](NC(C)=O)[C@@H](C)CC)C(=O)N1CCN(c2ccc3ncn(CC(=O)N[C@@H](Cc4c(F)c(F)c(F)c(F)c4F)C(=O)N[C@@H](Cc4c[nH]cn4)C(=O)N[C@@H](Cc4ccc(O)cc4)C(=O)N[C@@H](CC(C)C)C(=O)N[C@@H](CC(N)=O)C(=O)N[C@@H](CC(C)C)C(=O)N[C@H](C(=O)N[C@H](C(=O)N[C@@H](CCCNC(=N)N)C(=O)N[C@@H](CCC(N)=O)C(=O)N[C@@H](CCCNC(=N)N)C(=O)N[C@@H](Cc4ccc(O)cc4)C(N)=O)[C@@H](C)O)C(C)C)c(=O)c3c2)CC1
B6: H-Ile-Lys-Pqa-Arg-His-Tyr-Leu-Asn-Leu-Val-Ala-Arg-Gln-Arg-Tyr-NH2 (peptide)
peptide: H-IK[Pqa]RHYLNLVARQRY-NH2
SMILES: CC[C@H](C)[C@H](N)C(=O)N[C@@H](CCCCN)C(=O)N1CCN(c2ccc3ncn(CC(=O)N[C@@H](CCCNC(=N)N)C(=O)N[C@@H](Cc4c[nH]cn4)C(=O)N[C@@H](Cc4ccc(O)cc4)C(=O)N[C@@H](CC(C)C)C(=O)N[C@@H](CC(N)=O)C(=O)N[C@@H](CC(C)C)C(=O)N[C@H](C(=O)N[C@@H](C)C(=O)N[C@@H](CCCNC(=N)N)C(=O)N[C@@H](CCC(N)=O)C(=O)N[C@@H](CCCNC(=N)N)C(=O)N[C@@H](Cc4ccc(O)cc4)C(N)=O)C(C)C)c(=O)c3c2)CC1
B7: Ac-Ile-Nle-Pqa-Arg-(4-Pal)-Tyr-Leu-Asn-Leu-Val-Thr-Arg-Gln-Arg-Tyr-NH2 (peptide)
peptide: Ac-I[Nle][Pqa]R[4Pal]YLNLVTRQRY-NH2
SMILES: CCCC[C@H](NC(=O)[C@@H](NC(C)=O)[C@@H](C)CC)C(=O)N1CCN(c2ccc3ncn(CC(=O)N[C@@H](CCCNC(=N)N)C(=O)N[C@@H](Cc4ccncc4)C(=O)N[C@@H](Cc4ccc(O)cc4)C(=O)N[C@@H](CC(C)C)C(=O)N[C@@H](CC(N)=O)C(=O)N[C@@H](CC(C)C)C(=O)N[C@H](C(=O)N[C@H](C(=O)N[C@@H](CCCNC(=N)N)C(=O)N[C@@H](CCC(N)=O)C(=O)N[C@@H](CCCNC(=N)N)C(=O)N[C@@H](Cc4ccc(O)cc4)C(N)=O)[C@@H](C)O)C(C)C)c(=O)c3c2)CC1
B8: Ac-Ile-Nle-Pqa-(3,4,5 Trifluoro Phe)-His-Tyr-Leu-Asn-Leu-Val-Thr-Arg-Gln-Arg-Tyr-NH2 (peptide)
peptide: Ac-I[Nle][Pqa][Phe(3,4,5-F3)]HYLNLVTRQRY-NH2
SMILES: CCCC[C@H](NC(=O)[C@@H](NC(C)=O)[C@@H](C)CC)C(=O)N1CCN(c2ccc3ncn(CC(=O)N[C@@H](Cc4cc(F)c(F)c(F)c4)C(=O)N[C@@H](Cc4c[nH]cn4)C(=O)N[C@@H](Cc4ccc(O)cc4)C(=O)N[C@@H](CC(C)C)C(=O)N[C@@H](CC(N)=O)C(=O)N[C@@H](CC(C)C)C(=O)N[C@H](C(=O)N[C@H](C(=O)N[C@@H](CCCNC(=N)N)C(=O)N[C@@H](CCC(N)=O)C(=O)N[C@@H](CCCNC(=N)N)C(=O)N[C@@H](Cc4ccc(O)cc4)C(N)=O)[C@@H](C)O)C(C)C)c(=O)c3c2)CC1
B9: H-Ile-Lys-Pqa-Arg-Ala-Tyr-Leu-Asn-Leu-Val-Thr-Arg-Gln-Arg-Tyr-NH2 (peptide)
peptide: H-IK[Pqa]RAYLNLVTRQRY-NH2
SMILES: CC[C@H](C)[C@H](N)C(=O)N[C@@H](CCCCN)C(=O)N1CCN(c2ccc3ncn(CC(=O)N[C@@H](CCCNC(=N)N)C(=O)N[C@@H](C)C(=O)N[C@@H](Cc4ccc(O)cc4)C(=O)N[C@@H](CC(C)C)C(=O)N[C@@H](CC(N)=O)C(=O)N[C@@H](CC(C)C)C(=O)N[C@H](C(=O)N[C@H](C(=O)N[C@@H](CCCNC(=N)N)C(=O)N[C@@H](CCC(N)=O)C(=O)N[C@@H](CCCNC(=N)N)C(=O)N[C@@H](Cc4ccc(O)cc4)C(N)=O)[C@@H](C)O)C(C)C)c(=O)c3c2)CC1

Target: Y1R
Experiment: cell-based or functional assay

Y1R, sequence (P25929 whole entry): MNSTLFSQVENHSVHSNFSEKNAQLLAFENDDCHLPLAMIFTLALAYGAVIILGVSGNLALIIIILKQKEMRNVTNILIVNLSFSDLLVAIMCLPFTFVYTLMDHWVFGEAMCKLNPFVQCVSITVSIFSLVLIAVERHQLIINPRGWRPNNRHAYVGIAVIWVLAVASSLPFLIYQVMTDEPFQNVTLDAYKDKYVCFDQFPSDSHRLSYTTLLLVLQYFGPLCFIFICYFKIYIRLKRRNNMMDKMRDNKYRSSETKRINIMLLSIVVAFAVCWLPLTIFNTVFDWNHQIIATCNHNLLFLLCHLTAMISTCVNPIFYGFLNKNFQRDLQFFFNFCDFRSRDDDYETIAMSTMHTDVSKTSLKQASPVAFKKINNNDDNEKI

Row | Binder | Y1R EC50(nM) FLIPR [nM]
1 | B1 | > 5000
2 | B2 | > 5000
3 | Ac-I[Nle][Pqa]R[4‑MeOApc]YLNLVTRQRY-NH2 (reading uncertain) [Ac-Ile-Nle-Pqa-Arg-(4-MeOApc)-Tyr-Leu-Asn-Leu-Val-Thr-Arg-Gln-Arg-Tyr-NH2] | > 5000
4 | B3 | > 5000
5 | B4 | > 5000
6 | B5 | > 5000
7 | B6 | > 5000
8 | IARHYLNLVTRQRY (Pqa moiety between the two parts; C-terminal amide) [H-Ile-Ala-Pqa-Arg-His-Tyr-Leu-Asn-Leu-Val-Thr-Arg-Gln-Arg-Tyr-NH2] | 1000
9 | B7 | > 5000
10 | Ac-I[Nle][Pqa]RHYKNLVDRQRY-NH2 (lactam 7-11) [Cyclo Lys28-Asp32 Ac-Ile-Nle-Pqa-Arg-His-Tyr-Lys-Asn-Leu-Val-Asp-Arg-Gln-Arg-Tyr-NH2] | > 5000
11 | B8 | > 5000
12 | B9 | > 5000
13 | IKRHYLNAVTRQRY (Pqa moiety between the two parts; C-terminal amide) [H-Ile-Lys-Pqa-Arg-His-Tyr-Leu-Asn-Ala-Val-Thr-Arg-Gln-Arg-Tyr-NH2] | > 5000

Target: Y4R
Experiment: cell-based or functional assay

Row | Binder | Y4R EC50(nM) FLIPR [nM]
14 | B1 | > 5000
15 | B2 | > 5000
16 | Ac-I[Nle][Pqa]R[4‑MeOApc]YLNLVTRQRY-NH2 (reading uncertain) [Ac-Ile-Nle-Pqa-Arg-(4-MeOApc)-Tyr-Leu-Asn-Leu-Val-Thr-Arg-Gln-Arg-Tyr-NH2] | > 5000
17 | B3 | > 5000
18 | B4 | > 5000
19 | B5 | > 5000
20 | B6 | > 5000
21 | IARHYLNLVTRQRY (Pqa moiety between the two parts; C-terminal amide) [H-Ile-Ala-Pqa-Arg-His-Tyr-Leu-Asn-Leu-Val-Thr-Arg-Gln-Arg-Tyr-NH2] | > 5000
22 | B7 | > 5000
23 | Ac-I[Nle][Pqa]RHYKNLVDRQRY-NH2 (lactam 7-11) [Cyclo Lys28-Asp32 Ac-Ile-Nle-Pqa-Arg-His-Tyr-Lys-Asn-Leu-Val-Asp-Arg-Gln-Arg-Tyr-NH2] | > 5000
24 | B8 | > 5000
25 | B9 | > 5000
26 | IKRHYLNAVTRQRY (Pqa moiety between the two parts; C-terminal amide) [H-Ile-Lys-Pqa-Arg-His-Tyr-Leu-Asn-Ala-Val-Thr-Arg-Gln-Arg-Tyr-NH2] | > 5000
